B1: SARS-CoV Ubl1 of Nsp3 (domain or fragment)
chain: APIKGVTFGEDTVWEVQGYKNVRITFELDERVDKVLNEKCSVYTVESGTEVTEFACVVAEAVVKTLQPVSDLLTNMGIDLDEWSVATFYLFDDAGEENFSSRMYCSFYPPD
B2: MERS-CoV Ubl1 of Nsp3 (domain or fragment)
chain: APVKKVAFGGDQVHEVAAVRSVTVEYNIHAVLDTLLASSSLRTFVVDKSLSIEEFADVVKEQVSDLLVKLLRGMPIPDFDLDDFIDAPCYCFNAEGDASWSSTMIFSLHPVEC

How the values were obtained:
SARS-CoV N protein = SARS-CoV N protein (SARS-CoV, UniProt P59595 1-422); experiment: ITC; details: both partners purified
MERS-CoV N protein = MERS-CoV N protein (MERS-CoV, UniProt K9N4V7 1-411); experiment: ITC; details: both partners purified

SARS-CoV N protein, sequence (P59595 whole entry): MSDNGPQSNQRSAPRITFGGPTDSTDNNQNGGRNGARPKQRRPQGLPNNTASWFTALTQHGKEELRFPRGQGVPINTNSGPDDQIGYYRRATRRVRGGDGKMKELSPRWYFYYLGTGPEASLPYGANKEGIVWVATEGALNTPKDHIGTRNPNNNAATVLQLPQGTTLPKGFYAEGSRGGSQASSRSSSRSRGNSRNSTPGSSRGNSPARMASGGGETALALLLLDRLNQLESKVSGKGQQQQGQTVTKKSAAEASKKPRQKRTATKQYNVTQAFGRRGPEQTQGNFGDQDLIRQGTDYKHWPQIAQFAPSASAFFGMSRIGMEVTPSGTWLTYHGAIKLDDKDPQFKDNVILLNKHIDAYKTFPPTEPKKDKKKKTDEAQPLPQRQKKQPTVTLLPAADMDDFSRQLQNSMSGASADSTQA

Row | Binder | Kd (SARS-CoV N protein) [nM] | dH (SARS-CoV N protein) [kcal/mol] | stoichiometry N (SARS-CoV N protein) | Kd (MERS-CoV N protein) [nM] | dH (MERS-CoV N protein) [kcal/mol] | stoichiometry N (MERS-CoV N protein)
1 | B1 | 800 ± 200 | -13.4 ± 0.382 | 1 ± 0.02 | – | – | –
2 | B2 | – | – | – | 2300 ± 600 | 6.09 ± 0.311 | 0.82 ± 0.02

Reference: PMC9938351, “Structural insights into ribonucleoprotein dissociation by nucleocapsid protein interacting with non-structural protein 3 in SARS-CoV-2” (Communications Biology, 2020)
